Results reported in patent publication US20090136507A1 (published 2009).

What was measured:
Assay in all cases: yeast two-hybrid screens, LRP5 cytoplasmic domain bait against brain, HeLa and TE85 prey cDNA libraries
Axin (AXIN) = target: T1, Axin (AXIN) (Homo sapiens (Human), UniProt O15169 1-862, limits assumed)
T1 construct: Yeast two-hybrid prey
Source text: (§1) In order to identify cytoplasmic Zmax1 (LRP5) signaling pathways, the cytoplasmic domain of Zmax1 (LRP5) was subcloned into two bait vectors. The first vector was pDBleu, which was used to screen a brain, and Hela prey cDNA library cloned into the vector pPC86 (Clontech). The second bait vector used was pDBtrp, which was used to screen a cDNA prey library derived from the TE85 osteosarcoma cell line in vector pOP46. Another suitable vector which is widely available, is p86 (Gibco, Iest™ System). Standard techniques known to those skilled in the art were used as described in Fields and Song, 1989 Nature 340: 245-246; U.S. Pat. No. 5,283,173 by Fields and Song; Johnston, 1987 Microbiol. Rev. 51: 458-476; Keegan et al., 1986 Science 231: 699-704; Durfee et al., 1993 Genes Dev. 7: 555-569; Chien et al., 1991 Proc. Natl. Acad. Sci. USA 88: 9578-9582; Fields et al., 1994 Trends in Genetics 10: 286-292; and Gyuris et al., 1993 Cell 75: 791-803. The bait construct and prey cDNA libraries were transformed into yeast using standard procedures.
(§2) The frozen prey library was thawed, and the yeast cells reactivated by growing them in 150 ml YEPD medium with 2% glucose for 2 hrs at 30° C. A filter unit was sterilized with 70% ethanol and washed with sterile water to remove the ethanol. The cell densities of both bait and prey cultures were measured by determining the OD at 600 nm. An appropriate volume of yeast cells that corresponded to a cell number of 1 ml of OD 600=4 of each yeast strain, bait and prey (library) was placed in a 50 ml Falcon tube. The mixture was then filtered through the sterilized filter unit. The filter was then transferred onto a prewarmed YEPD agar plate with the cell side up, removing all air bubbles underneath the filter. Plates were then incubated at 30° C. for 6 hrs. One filter was transferred into a 50 ml Falcon tube, and 10 ml of SD with 2% Glucose was added; cells were resuspended by vortexing for 10 sec. […]

alpha-actinin (ACTN1) = target: T2, alpha-actinin (ACTN1) (Homo sapiens (Human), UniProt P12814 1-892, limits assumed)
T2 construct: Yeast two-hybrid prey; also called α-actinin
Source text: as §1, §2

Zyxin (ZYX) = target: T3, Zyxin (ZYX) (Homo sapiens (Human), UniProt Q15942 2-572, limits assumed)
T3 construct: Yeast two-hybrid prey
T3 sequence: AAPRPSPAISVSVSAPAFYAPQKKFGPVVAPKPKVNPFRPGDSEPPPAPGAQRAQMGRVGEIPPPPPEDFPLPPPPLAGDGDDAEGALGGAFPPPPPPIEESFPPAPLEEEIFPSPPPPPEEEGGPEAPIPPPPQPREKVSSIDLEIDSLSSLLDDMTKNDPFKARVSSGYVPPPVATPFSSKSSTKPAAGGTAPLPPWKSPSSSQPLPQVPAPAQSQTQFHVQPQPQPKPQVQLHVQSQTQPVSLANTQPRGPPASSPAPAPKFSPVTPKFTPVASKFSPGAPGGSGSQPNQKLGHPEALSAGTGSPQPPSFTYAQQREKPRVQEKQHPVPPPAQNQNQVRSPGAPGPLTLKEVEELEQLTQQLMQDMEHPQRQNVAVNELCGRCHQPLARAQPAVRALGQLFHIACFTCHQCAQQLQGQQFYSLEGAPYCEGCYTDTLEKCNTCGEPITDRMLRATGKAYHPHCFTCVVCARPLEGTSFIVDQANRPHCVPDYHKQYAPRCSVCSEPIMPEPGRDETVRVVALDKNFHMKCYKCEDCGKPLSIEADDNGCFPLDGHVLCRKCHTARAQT
Source text: as §1, §2

Measured: binding result

T1 sequence (O15169 other isoform, or with tags, fused parts or gaps limits assumed): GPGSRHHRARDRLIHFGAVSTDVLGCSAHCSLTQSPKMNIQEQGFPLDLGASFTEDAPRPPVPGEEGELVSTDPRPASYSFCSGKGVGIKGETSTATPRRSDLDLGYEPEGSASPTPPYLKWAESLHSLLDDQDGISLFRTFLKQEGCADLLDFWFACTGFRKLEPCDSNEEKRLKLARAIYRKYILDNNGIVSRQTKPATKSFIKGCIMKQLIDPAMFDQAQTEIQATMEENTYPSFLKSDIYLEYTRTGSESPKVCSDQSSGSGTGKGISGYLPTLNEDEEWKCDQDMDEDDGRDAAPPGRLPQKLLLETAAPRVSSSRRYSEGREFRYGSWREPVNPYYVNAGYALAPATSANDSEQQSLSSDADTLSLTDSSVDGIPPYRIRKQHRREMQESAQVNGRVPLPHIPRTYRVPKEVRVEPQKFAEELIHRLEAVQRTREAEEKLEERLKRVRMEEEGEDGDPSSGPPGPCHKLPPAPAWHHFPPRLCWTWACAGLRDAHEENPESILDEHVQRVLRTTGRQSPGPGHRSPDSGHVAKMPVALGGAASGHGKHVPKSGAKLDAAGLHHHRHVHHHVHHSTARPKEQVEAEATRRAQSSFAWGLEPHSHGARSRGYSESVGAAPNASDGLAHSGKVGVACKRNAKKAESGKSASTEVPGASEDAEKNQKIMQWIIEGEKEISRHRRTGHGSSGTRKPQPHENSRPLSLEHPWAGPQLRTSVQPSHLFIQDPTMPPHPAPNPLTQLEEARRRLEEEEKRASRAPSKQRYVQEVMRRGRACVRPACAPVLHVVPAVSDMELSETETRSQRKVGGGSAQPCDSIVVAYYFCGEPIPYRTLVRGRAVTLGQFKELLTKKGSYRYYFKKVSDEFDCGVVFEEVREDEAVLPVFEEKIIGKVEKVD
T2 sequence (P12814 whole entry): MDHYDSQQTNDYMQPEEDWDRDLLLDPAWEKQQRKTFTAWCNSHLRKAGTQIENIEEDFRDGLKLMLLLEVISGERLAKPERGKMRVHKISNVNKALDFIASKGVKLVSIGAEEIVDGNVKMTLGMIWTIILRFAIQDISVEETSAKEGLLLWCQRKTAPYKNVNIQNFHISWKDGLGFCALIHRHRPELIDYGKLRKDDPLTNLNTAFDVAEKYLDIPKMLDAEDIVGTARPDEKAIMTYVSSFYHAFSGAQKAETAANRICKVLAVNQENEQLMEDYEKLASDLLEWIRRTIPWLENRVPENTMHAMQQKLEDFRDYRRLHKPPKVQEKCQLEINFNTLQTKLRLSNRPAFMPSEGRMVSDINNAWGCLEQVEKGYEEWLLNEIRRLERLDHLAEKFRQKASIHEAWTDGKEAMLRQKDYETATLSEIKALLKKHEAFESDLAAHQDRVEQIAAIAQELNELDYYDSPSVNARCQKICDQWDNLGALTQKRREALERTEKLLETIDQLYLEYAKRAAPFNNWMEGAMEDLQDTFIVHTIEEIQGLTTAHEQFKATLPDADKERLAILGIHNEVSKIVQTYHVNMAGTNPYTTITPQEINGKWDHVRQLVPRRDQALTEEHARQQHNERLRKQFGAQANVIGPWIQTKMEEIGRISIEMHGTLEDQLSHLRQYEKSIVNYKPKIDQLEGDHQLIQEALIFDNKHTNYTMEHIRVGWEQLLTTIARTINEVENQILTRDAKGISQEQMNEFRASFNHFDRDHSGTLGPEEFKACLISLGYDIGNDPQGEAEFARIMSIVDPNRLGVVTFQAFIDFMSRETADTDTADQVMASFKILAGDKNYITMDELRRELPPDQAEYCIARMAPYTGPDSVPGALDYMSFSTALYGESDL

B1: Zmax1 (LRP5) cytoplasmic domain bait (entire cytoplasmic domain and a portion of the transmembrane domain) (receptor)
chain: RVVCQRYAGANGPFPHEYVSGTPHVPLNFIAPGGSQHGPFTGIACGKSMMSSVSLMGGRGGVPLYDRNHVTGASSSSSSSTKATLYPPILNPPPSPATDPSLYNMDMFYSSNIPATVRPYRPYIIRGMAPPTTPCSTDVCDSDYSASRWKASKYYLDLNSDSDPYPPPPTPHSQYLSAEDSCPPSPATERSYFHLFPPPPSPCTDSS
notes: Yeast two-hybrid bait; also called cytoplasmic domain of Zmax1 (LRP5); cytoplasmic domain of LRP5
binds: all assays above
